Assay [1] has as its target T1, Recombinant mouse PrP full length (23-230) (mouse, UniProt P04925 23-230). The experiment in a line: SPR.
Assay [2] concerns the target T1, Recombinant mouse PrP full length …. The experiment in a line: SPR. This is another data set of the same source. (SPR reads the build-up and loss of mass on a sensor chip optically.)

What is called koff is a measure of how fast the partners let go of each other. A word on the Kd: it is the equilibrium constant for the complex coming apart.

T1 sequence (P04925 23-230): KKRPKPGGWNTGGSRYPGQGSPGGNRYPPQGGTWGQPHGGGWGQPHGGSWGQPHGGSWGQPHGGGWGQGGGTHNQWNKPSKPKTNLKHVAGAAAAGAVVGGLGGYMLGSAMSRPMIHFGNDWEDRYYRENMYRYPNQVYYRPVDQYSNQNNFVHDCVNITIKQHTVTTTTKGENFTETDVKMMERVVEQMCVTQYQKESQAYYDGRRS

B1: scPOM2 (scFv, V domains shown)
VH: VKLQESGGEVVRPGTSVKVSCKASGYAFTNYLIEWVKQRPGQGLEWIGVINPGSGDTNYNEKFKGKATLTADKSSSTAYMQLNSLTSDDSAVYFCARSGAAAPTYYAMDYWGQGVSVTVSS
VL: DIVMTQSHKFMSTSVGDRVSITCKASQVGTALAWYQQKPGQSPKLLIYWASTRHTGVPDRFTGSGSGTDFTLTISNVQSEDLSDYFCQQYSSYPTFGGGTKLEIK
B1: the koff in assay [1] stood at 0.00036 s⁻¹. Also, the Kd in assay [2] was found to be 23 nM.

B2: Full IgG POM2 monoclonal antibody (antibody, V domains shown)
VH: B1 VH
VL: B1 VL
As to B2, in assay [1], the koff came out at 9.5e-06 s⁻¹. Also, the Kd in assay [2] stood at 0.1 nM.

Source of the values: publication PMC6181439 (2018).
